Data on 16 sequences can be found in the DeepSol protein solubility set.

The data set is described as follows: soluble on expression in E. coli; label from the status in PepcDB or PDB records.
“GPGSMYSYNNIIEKNEPCKKDVIENLQLSLSPTGAVRQFRVDERVDVVVVEGFLSNDECDQLIAACEKVGYTFWRQKDPNAEGEEAGCCGEAEARAFRVVDTIEANFPTLSQVLSSRIEKVVKLDPKTFSPSMEGAEELFARDLEGTWVPQQLAQNLLFARYGAGGHFSPHIDGSTIVDINTRSLYTLLIYLNDCEAGGETVLFDGEQAEVLKRDAESGKYIGRRENRIGAVKPTKGTAAFFYYDVLHEGSPVGEGHSKYIIRGDFLYRRNPPILTAENDMKAFELYEKARVAESNGDVFAACEMFQRVRKLSKGVAELYQL”: the “soluble on expression in E. coli” value is on record as “soluble”.
“MTQPLFLIGPRGCGKTTVGMALADSLNRRFVDTDQWLQSQLNMTVAEIVEREEWAGFRARETAALEAVTAPSTVIATGGGIILTEFNRHFMQNNGIVVYLCAPVSVLVNRLQAAPEEDLRPTLTGKPLSEEVQEVLEERDALYREVAHIIIDATNEPSQVISEIRSALAQTINC”: the “soluble on expression in E. coli” value is “soluble”.
As for “MGSDKIHHHHHHMSSEAIFEHGYENIDLVREYDARYAGEDVHYETFARLANFFGRDMRPHWHDRYFQLHYLVTGRITLQLDEHFYSVRAPLFVLTPPSVPHTFFTNPDSDGHVLTVRQELIWPLVEKLWPGSGDAAMLQGICLSLEGMEHTLAALNHYWPIISLEFQQNKQGREILLQSLAQSIFTILLREAPPNDISTCSVRGEMCLFQKFNRLIDENYRQHLMVPEYATMLGMSESRLTELCRRFANQSPKRLIFERVSREARRLLLYSEQSINQIALDLGYKDPAYFARFFNRMMGCSPTQFRGR”, the entry is “not soluble”.
Consider “MQKNNNKLTMSARFGEWYKEATENCAERELYATSLIARMDWVVDPISSKSYRYDLTTDLNKNHSSAWYDVATEICNKRKETVIRAILEDNIKIENF”, for which the “soluble on expression in E. coli” value is “soluble”.
As for “MSLEVRWNEYLSRNGSLFSSDELSGASPPSVFVGSYGYPRVGVGPMVPPVHGDTSLMDAPERWAGRPLDEIVNYRLSLVRGIRKTRVTGTSGRYIEGLQEAAMSRRPVDSDIRFEKPVSPAALADGCCAPFGPVGEIRRASFGGSSADGAIERAYYDRDLGAADAAVALYDGGTEISRIQGCLSVGMLGRRRKLVPTRWSITAVDDMVSKRLVGRIKDAPVSDAHQVFHYVHMGNLFSVVLFPHRWLFEMMEAYYSGGVLGFGADHEDARGLDHAPATAGAHFASRLAVAEHLCGRGVQAGALVLREIRAEYSVPVGVWQVREGLRAAMAQKPFVAGSLDEAIDEACRPMSISRNEWLSHGSIMRLVRQRTLSEFFEGHHHHHH”, the entry is “not soluble”; as for “ENSVFFGKKKKVSLHLLVDPDMKDEIIKYAQEKDFDNVSQAGREILKKGLEQIA”, “soluble”.
For the sequence “MTKLFLPNTQATQQLGITLGKNLTAGSVILLEGDLGAGKTTLVQGIGKGLGINESIVSPTFTLINEYIEGRIPLYHLDLYRLKPQEVTGLNLESYWEGIEVTPGIVAIEWAERMPYLPDSYFRVCLKSGEDGDRQLEITAVNCQMIDNLISS”, the “soluble on expression in E. coli” value was “not soluble”.
Take “MGSDKIHHHHHHMINSTFLTNRVFSTWYYFSLLLYKEKGCDLVKTPKIVVLGAGYGGMITTVRLQKALSVNEAEITLVNNNSYHYQATWLHESAAGTLQDEKICLDIQDVIDTNKVNFVQDTVVEIKAAEKRIILKDGELEYDYLVIGLGFESETFGITGLKEHAFSIANINATRQIREHMEASFAKYADEKRDELVTIVVGGAGFTGIEYVGELANRVPELCKQYNVPREKARIICVEAAPTALPGFDPALVEYAVKQLEKKGVEFRIGTAIKEATEEGIIVANGDDTELIKSETVVWAAGVRGNGIVEESGFEAMRGRVKVDEYMHAPGYEDVFMVGDAALIINEEINRPYPPTAQIAIQQGYNIAHNLTVLVRGKGEMKKFVFDNKGSVCSLGHDDAMGVVMGKKLTGWKASFMKKVIDNRYLFLLGGPLLVLKKGKLKFF”: the “soluble on expression in E. coli” value was “not soluble”.
“MHLSPESLEAFVQAVSLGSFSAAARKLGKSQSTVSEAIARLEIDLGLELFDRSGRQPQLTEAGRTLLGRVEEVLGASDRLRRVAALLAGGSEPRVTLALSDTYHSARYEARLAELDERYPELEFECLIAEDQDVIAQVSRGRATLGLLAAQPHYPPELGVAAVAERAEFGLFAAVDHPLAGLERVSERDLSEWRLLRLNTYSETGAAINDGLPSSGGRCWSAPNYLLLLEMATHGFGWAELPRWLVSGYANGRLKELPVSGWPRSQAVDVVWSRQRPLGPAANWLLDRLLDRDLPI”: the “soluble on expression in E. coli” value is “not soluble”.
Then “MLKGIPKIIPPELLKVLCEMGHGDQLVIADGNFPAESIGKNAIVVRMDGHGGGEILKAILTVFPLDTYVDKPATLMEKVPGDTVATPIWDVYAGLIKEHDERGADAIGSLERFAFYEQAKNAYCVIASGESAQYANLILQKGVVFNAE”, with “soluble”; and “AAASFGQTKIPRGNGPYSVGCTDLMFDHTNKGTFLRLYYPSQDNDRLDTLWIPNKEYFWGLSKFLGTHWLMGNILRLLFGSMTTPANWNSPLRPGEKYPLVVFSHGLGAFRTLYSAIGIDLASHGFIVAAVEHRDRSASATYYFKDQSAAEIGDKSWLYLRTLKQEEETHIRNEQVRQRAKECSQALSLILDIDHGKPVKNALDLKFDMEQLKDSIDREKIAVIGHSFGGATVIQTLSEDQRFRCGIALDAWMFPLGDEVYSRIPQPLFFINSEYFQYPANIIKMKKCYSPDKERKMITIRGSVHQNFADFTFATGKIIGHMLKLKGDIDSNVAIDLSNKASLAFLQKHLGLHKDFDQWDCLIEGDDENLIPGTNINTTNQHI”, with “soluble”.
Then “MIVFSSLQIRRGVRVLLDNATATINPGQKVGLVGKNGCGKSTLLALLKNEISADGGSYTFPGSWQLAWVNQETPALPQAALEYVIDGDREYRQLEAQLHDANERNDGHAIATIHGKLDAIDAWSIRSRAASLLHGLGFSNEQLERPVSDFSGGWRMRLNLAQALICRSDLLLLDEPTNHLDLDAVIWLEKWLKSYQGTLILISHDRDFLDPIVDKIIHIEQQSMFEYTGNYSSFEVQRATRLAQQQAMYESQQERVAHLQSYIDRFRAKATKAKQAQSRIKMLERMELIAPAHVDNPFRFSFRAPESLPNPLLKMEKVSAGYGDRIILDSIKLNLVPGSRIGLLGRNGAGKSTLIKLLAGELAPVSGEIGLAKGIKLGYFAQHQLEYLRADESPIQHLARLAPQELEQKLRDYLGGFGFQGDKVTEETRRFSGGEKARLVLALIVWQRPNLLLLDEPTNHLDLDMRQALTEALIEFEGALVVVSHDRHLLRSTTDDLYLVHDRKVEPFDGDLEDYQQWLSDVQKQENQTDEAPKENANSAQARKDQKRREAELRAQTQPLRKEIARLEKEMEKLNAQLAQAEEKLGDSELYDQSRKAELTACLQQQASAKSGLEECEMAWLEAQEQLEQMLLEGQSN”, with “soluble”; and “MSLTLFHAPRSRSTRIVTLLRELDAIDKVAIKIVDITRGDGSGRKDPKNLHPEGKVPLLDHDGVVIWESIAIIQYLTDLFPEKKMAPVAGDPQRGRYLSWLAWYAGVVEPVLIMQAAGISHPFVDFTFRSPAELAARLETALKDCPYLMGERYTAVDLLLHSPFAWCPAATPESDVVKAWIERCGERPSLQWTANYDACTVVAEGHHHHHH”, with “soluble”.
As for “MEIQHLDGHIVKVQRDKVTWPGARLRKKDEGMPSLEDNNKKGMLVVTFDVEFPKTELSDEQKAQIIEILQQNTVKPKAYNGL”, the entry is “not soluble”.
In the case of “MTKTKFEKVLLIVNPKAGQGDLHTNLTKIVPPLAAAFPDLHILHTKEQGDATKYCQEFASKVDLIIVFGGDGTVFECTNGLAPLEIRPTLAIIPGGTCNDFSRTLGVPQNIAEAAKLITKEHVKPVDVAKANGQHFLNFWGIGLVSEVSNNIDAEEKAKLGKIGYYLSTIRTVKNAETFPVKITYDGQVYEDEAVLVMVGNGEYLGGIPSFIPNVKCDDGTLDIFVVKSTGIQAFKDYIGKKLFEDSNENDIFHVKAKSIHIETEEEKEVDTDGESSLHTPCQIELLQGHFTMIYNPAVV”, the “soluble on expression in E. coli” value is reported as “soluble”.
As for “MDMERNRLYFFYKRDDKLIERVKPLIELAERGPFVVVDDYREANIIVSIGDDGAFLQAVRQTGFLPDRLYVGVSVLPARGFYCDFHIDDIDHMVEAAKNWKLEVRRYPIIEVTIDGAASFFCLNECSIRSQIIKTMAIDVFIDDLHFETFRGDGIIVSTPTGSTGYNKSVHGAVVDPLLPCFQVSELASLNSNRYRTLGSPFILSGSRTLTLKMSEETSHFPIIGLDNEALSIQHIERIDIRLSDRVVKTVRLKDNSFWDKVKRVFL”, the entry is “not soluble”.
